Reference: article PMC7822688, “W196 and the β-Hairpin Motif Modulate the Redox Switch of Conformation and the Biomolecular Interaction Network of the Apoptosis-Inducing Factor” (Oxidative Medicine and Cellular Longevity, 2021)

Assays:
Conditions in all cases: both partners purified
W196Y hAIF_(Δ1-101) = target: T1, W196Y hAIF_(Δ1-101) (human, UniProt O95831 102-613, W196Y); experiment: ITC; Auto-iTC200, 25°C, 50 mM potassium phosphate, pH 7.4; 10-20 μM protein partner titrated into ~10 μM hAIF_(∆1-101) variant in the CTC state (premixed with NADH at a 1 : 100 ratio); single-ligand binding site model
T1 construct: FAD holoprotein; 'ox' oxidized, 'CTC' after reduction with NADH; The His6 tag is called cleavable; whether it was cleaved is told only in the supplementary materials; also called W196Yox; W196Y CTC; source: E. coli C41 (DE3), purified to homogeneity (protocol in the supplementary materials)
T1 sequence (O95831 102-613 W196Y): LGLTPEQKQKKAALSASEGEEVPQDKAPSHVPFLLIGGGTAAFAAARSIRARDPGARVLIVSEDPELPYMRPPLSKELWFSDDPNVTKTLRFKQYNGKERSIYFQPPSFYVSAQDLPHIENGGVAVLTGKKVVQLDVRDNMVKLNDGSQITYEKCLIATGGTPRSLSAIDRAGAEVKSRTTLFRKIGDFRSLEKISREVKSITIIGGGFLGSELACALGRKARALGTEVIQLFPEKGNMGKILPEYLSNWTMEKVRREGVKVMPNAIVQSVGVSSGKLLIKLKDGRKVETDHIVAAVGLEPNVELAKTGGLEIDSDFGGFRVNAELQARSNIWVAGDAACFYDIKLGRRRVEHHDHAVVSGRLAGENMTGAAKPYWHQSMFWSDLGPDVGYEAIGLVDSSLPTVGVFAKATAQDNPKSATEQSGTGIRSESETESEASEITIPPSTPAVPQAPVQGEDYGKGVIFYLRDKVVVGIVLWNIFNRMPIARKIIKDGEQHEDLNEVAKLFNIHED

[1] = target: T2, WT human apoptosis-inducing factor hAIF_(Δ1-101) (human, UniProt O95831 102-613); experiment: as above
T2 construct: FAD holoprotein. 'ox' is the oxidized protein; 'CTC' is the same protein reduced by an excess of NADH (FADH-/NAD+ charge transfer complex); The His6 tag is called cleavable; whether it was cleaved is told only in the supplementary materials; also called WTox; source: protocol in the supplementary materials
T2 sequence (O95831 102-613, stated change not applied): as the sequence (O95831 102-613 W196Y) above, with Y95W counted along it

W196A hAIF_(Δ1-101) [2] = target: T3, W196A hAIF_(Δ1-101) (human, UniProt O95831 102-613, W196A); experiment: as above
T3 construct: FAD holoprotein; 'ox' oxidized, 'CTC' after reduction with NADH; The His6 tag is called cleavable; whether it was cleaved is told only in the supplementary materials; also called W196Aox; source: E. coli C41 (DE3), purified to homogeneity (protocol in the supplementary materials)
T3 sequence (O95831 102-613 W196A): as the sequence (O95831 102-613 W196Y) above, with Y95A counted along it

W196A hAIF_(Δ1-101) [3] = target: T3, W196A hAIF_(Δ1-101); experiment: ITC; Auto-iTC200, 25°C, 50 mM potassium phosphate, pH 7.4; 10-20 μM protein partner titrated into ~10 μM oxidized hAIF_(∆1-101) variant, without NADH; single-ligand binding site model

B1: human CHCHD4 (coiled-coil-helix-coiled-coil-helix domain containing 4) (natural protein, UniProt Q8N4Q1 1-142, looked up)
chain: MSYCRQEGKDRIIFVTKEDHETPSSAELVADDPNDPYEEHGLILPNGNINWNCPCLGGMASGPCGEQFKSAFSCFHYSTEEIKGSDCVDQFRAMQECMQKYPDLYPQEDEDEEEEREKKPAEQAEETAPIEATATKEEEGSS
notes: human CHCHD4, UniProtKB Q8N4Q1; synthetic codon-optimised cDNA in pET28a (NdeI-NotI); The His6 tag is called cleavable; whether it was cleaved is told only in the supplementary materials; source: E. coli C41 (DE3), purified (protocol in the supplementary materials)
W196Y hAIF_(Δ1-101)
  Kd: 2100 nM
  dH: -8.2 kcal/mol
[1]
  Kd: 200 nM
  dH: -20.1 kcal/mol
W196A hAIF_(Δ1-101) [2]
  Kd: 500 nM
  dH: -5.9 kcal/mol
W196A hAIF_(Δ1-101) [3]
  Kd: 400 nM
  dH: 9.6 kcal/mol
